Test results: patent US7060670B1, “Stereoselective antifibrillogenic peptides and peptidomimetics thereof” (Neurochem (International) Limited, priority 1999, dated 2006)
Entries after “also recorded” stand apart in the source; their conditions may differ. Non-standard residues stand in square brackets, D forms with d. No end group written: not given here.

Assays:
Aβ(1–40) = biological target: T1, Aβ(1–40) (Homo sapiens, UniProt P05067); assay: thioflavin T fluorescence assay for fibrillogenesis of Aβ(1–40); format: biochemical; details: for Order Of Potency of Peptide Inhibitors, Tested at 20 μM / Order Of Potency of Peptide Inhibitors, Tested at 80 μM: rank, 1 = strongest activity, 11 = weakest, Aβ(1–40) 20 μM, by first appearance of fluorescence over 5-90 hours; for Order Of Potency of Peptide Inhibitors, Tested at 20 μM: peptide 20 μM; for Order Of Potency of Peptide Inhibitors, Tested at 80 μM: peptide 80 μM; for concentration required to give an equivalent inhibition: all-[D] versus all-[L] stereoisomer; for inhibition of [L]-Aβ (1–40) assembly/fibrillogenesis compared with the opposite stereoisomer: FIG. 2, all-[L] Aβ (1–40)
T1 construct: Aβ (1–40) 95% purity (American Peptide Company); purchased American Peptide Company, Inc 62-0-78
T1 sequence (P05067 672-711 limits assumed): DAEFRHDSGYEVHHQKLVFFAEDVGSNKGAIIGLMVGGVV
Description: The thioflavin T fluorescence assay for fibrillogenesis is based on the principle that the fluorescent dye, thioflavin T, binds specifically to fibrillar, but not to unaggregated Aβ peptide (LeVine III, H., 1993, Protein Science 2:404–410). Upon binding, thioflavin T develops a characteristic fluorescence (Naiki, H., et al., 1996, Lab. Invest. 74: 374–383) which can be easily detected. The dye is believed to interact with the stacked cross-β pleated sheets, the common structural motif of all amyloids (LeVine III, H., 1995, Amyloid: Int. J. Exp. Clin Invest. 2:1.6). Thioflavin T is widely used to assay the effect of compounds on Aβ peptide fibrillogenesis (Bronfman, P. C., et al., 1995, Neuroscience Lett. 218:201–203). In this assay test compounds are incubated with a solution of Aβ(1–40) (20 μM) containing 10 μM thioflavin T, in 0.02M Tris/0.02M acetate/0.15M NaCl/0.005% azide/pH 7.40 at 37° C. in sealed 384 well microplates. Readings (ex 430 nm/em 485 nm) are taken at various time intervals with a microplate fluorescence reader. An increase in fluorescence signifies the appearance of amyloid or intermediates in the production of amyloid. Inhibitors of fibrillogenesis will lead to less fluorescence production. The results illustrated in Table 1 below, are based on the fluorescence production in the presence of test peptides at either 20 μM or 80 μM concentration, at the time intervals of 5, 19, 45, 67, 77 and 90 hours, compared to a control, buffer alone, without added inhibitory peptide. Protocol Aβ peptide: Aβ (1–40) 95% purity (American Peptide Company, Inc, Sunnyvale, Cal. USA, cat. 62-0-78) is disaggregated in trifluoroacetic acid and filtered through a […] filter, (Whatman Anotop 25 plus, 0.02 μm, Catalogue no. 6809 4102) in hexafluoroisopropanol (HFIP). Solutions of Aβ (1–40) at 600 μM in HFIP are stored at −80° C. Assay mixture: The mixture is prepared as two solutions that are combined upon addition to the 384 well microplate (Corning Costar cat. 3705). • i) Solution A consists of test peptides in 0.02M Tris/0.02M acetate/0.15M NaCl/0.01% azide at pH 7.40 or buffer alone (control), • ii) Solution B consists of Aβ(1–40) 40 μM, thioflavin T 20 μM in 0.02M Tris/0.02M acetate/0.15M NaCl at pH 7.40. This solution is prepared by drying the Aβ peptide under nitrogen and then resuspending this in 0.04M Tris base with 15 minutes sonication. An equal volume of 0.04M acetic acid containing 0.3 M NaCl is added and the solution is adjusted to pH 7.40±0.02. A small volume of 5 mM thioflavin T is added to the solution to give a final 20 μM concentration of thioflavin T. • iii) The microplate is loaded with 40 μL of solution A followed by 40 μL of solution B which gives a final 20 μM Aβ(1–40), 10 μM thioflavin T, and either 20 μM, 80 μM or 100 μM test compound in 0.02M Tris/0.02M acetate/0.15M NaCl/0.005% azide, pH 7.40. The plate is sealed and loaded into the microplate fluorescence reader. Fluorescence measurement data analysis: The HTS-7000 Bio Assay Reader, Perkin Elmer, is used to perform kinetic runs of about 5 days. Readings were taken at various time intervals, 5, 19, 45, 67, 77 and 90 hours, with one minute shaking before each reading. Bandpass filters used were: excitation 430 nm, emission […]. Calculations The rank order of efficacy of the peptides is determined by observing which peptides allow the appearance of fluorescence, above the background level, first. For example in the presence of buffer control alone, fluorescence appears earlier than when any of the peptides is present.

Aβ40 [1] = biological target: T2, Aβ40 (Homo sapiens, UniProt P05067); assay: CD spectrum of Aβ40 incubated with peptide (β-sheet content); format: biochemical; details: for β-sheet content of Aβ40 by CD spectrum at time t=0: physiological conditions
T2 construct: when incubated with Aβ40 under physiological conditions
T2 sequence (P05067 672-711 limits assumed): as above
Description: (§1) It is the understanding of the inventors that this interesting observation will lead to a greater understanding of fibrillogenesis of Aβ40 and Aβ42 peptides and as a result, will provide important information for the design of potent anti-fibrillogenic compounds for Aβ, other amyloidotic peptides such as AA, AL and IAPP for the treatment of diseases such as Alzheimer's, Type II Diabetes and amyloidosis related disorders. The same principle can also be applied to the design of peptide type compounds for the inhibition of binding of various chemokines to the cell surface as well as inhibition of self assembly and cellular adherence of prion proteins.

all-[D]-Aβ (1–40) = assay: thioflavin T fluorescence assay for fibril formation by [D]-Aβ (1–40); format: biochemical; details: FIG. 3
Aβ = Aβ (Homo sapiens, UniProt P05067); assay: Aβ-NBD environmental probe fibrillogenesis assay; format: biochemical
Aβ, sequence (P05067 672-711 limits assumed): as above

Aβ40 [2] = biological target: T2, Aβ40; assay: electron microscopy of peptide/Aβ40 mixture; format: biochemical; details: mixture of peptide and Aβ40
Description: as §1

125I-LBMP1620 = details: peptide synthesized by SPOT technique; cited from earlier work
[3] = test system: fetal rat primary cortical neurons; assay: propidium iodide assay on primary cortical neurons with Aβ; format: cell-based; details: FIG. 7; compared to Congo red and Aβ alone; 3 days; listed as all-[D]-Lys-Leu-Val-Phe-Phe-Ala
Description: FIG. 7 uses the propidium iodide assay on primary cortical neurons. Briefly, fetal rat primary cortical neurons are isolated and cultured according to Durkin, J. P. et al., J. Neurochem., 66:951–962, 1996. Neurons are plated in a 48 well microplate. 7 days after plating the neuronal culture media is supplemented with B27 (Life Technologies, Data sheet form No. 3755). A mixture of Aβ and test peptide is added to the cortical neurons for 3 days at 37° C. and 5% CO2.
Cell viability is then visually assessed as the proportion of phase-bright cells that exclude propidium iodide, since only dead cells take up propidium iodide.

[4] = test system: SH-SY5Y human neuroblast cell line; assay: MTT cytoprotection assay, Aβ (1–40) toxicity on SH-SY5Y cells; format: cell-based; details: FIG. 6, 100 μM test peptide, listed as all-[D]-Lys-Lys-Leu-Val-Phe-Phe-Ala
Description: FIG. 6 uses the MTT assay on SH-SY5Y cells.
A SH-SY5Y human neuroblast cell line (American Type Culture Collection, cat. CRL-2266) is cultured according to technical specifications. Monomerized Aβ (1–40) is prepared using trifluoroacetic acid and hexafluoroisopropanol, in the same way already described for the thioflavin T fluorescence assay. Monomerized Aβ at various concentrations in TANA buffer (0.02 M TRIS base pH 7.4, 0.02M acetate, 0.15 M NaCl) is added to 100 μM test peptide and the mixture is incubated for 24 hours at 37° C. with agitation, in order to allow polymerization to occur. Cells are adhered to a 96-well microplate for 2 hours at 37° C. and 5% CO2 before the Aβ-peptide mixture, or buffer alone (control), is added. The microplate is gently agitated and incubated for 20–24 hours at 37° C. and 5% CO2. Cell viability is determined by a MTT-based colorimetric assay. The MTT assay (Boehringer Mannheim, Cell Proliferation Kit 1) is based on the principle that the yellow tetrazolium salt MTT is cleaved in metabolically-active cells to produce purple formazan crystals. The formazan crystals are solubilized and the resulting colored solution is quantified using a scanning multiwell spectrophotometer (ELISA reader, Absorbance A560 nm). Cellular toxicity was calculated as follows: […]

IAPP = biological target: T3, IAPP (Homo sapiens, UniProt P10997); assay: IAPP fibril formation (thioflavin T assay, circular dichroism, electron microscope); format: biochemical; details: circular dichroism and thioflavin T assay
T3 sequence (P10997 34-70 limits assumed): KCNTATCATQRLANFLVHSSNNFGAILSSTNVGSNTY
Description: Other amyloidogenic peptides such as IAPP, have also been tested.
The full-length IAPP is 37 amino acids and the β-sheet region is the 20–29 sequence. The 20–29 sequence is critical for forming β-sheet and has been previously shown to be a key region in modulating IAPP aggregation and folding.
Hexapeptides spanning the 20–29 region (Ser-Asn-Asn-Phe-Gly-Ala-Ile-Leu-Ser-Ser) of the IAPP protein were synthesized and tested for their ability to prevent fibril formation as determined by circular dichroism and the thioflavin T assay. […] These peptides (Ser-Asn-Asn-Phe-Gly-Ala- and Asn-Asn-Phe-Gly-Ala-Ile) were directed towards the central core of the 20–29 region.

Substance | Order Of Potency of Peptide Inhibitors, Tested at 20 μM (Aβ(1–40)) | Order Of Potency of Peptide Inhibitors, Tested at 80 μM (Aβ(1–40)) | other results
AFFVLK [reference compound] | 11 (L) AFFVLK | 11 (L) AFFVLK | –
Ala-Phe-Phe-Val-Leu-Lys [(D) AFFVLK] ([dA][dF][dF][dV][dL][dK]) | 5 (D) AFFVLK | 1 (D) AFFVLK | –
Asp-Asp-Asp (DDD; peptide having antifibrillogenic activity and/or neuroprotection) [tripeptide] | – | – | β-sheet content of Aβ40 by CD spectrum after 24 hours incubation (Aβ40 [1]): no trace of β-sheet conformation; β-sheet content of Aβ40 by CD spectrum at time t=0 (Aβ40 [1]): slight decrease
KKLVFFA [reference compound] | 10 (L) KKLVFFA | 7 (L) KKLVFFA | concentration required to give an equivalent inhibition (Aβ(1–40)): 400 µM
KLVFFA [reference compound] | 8 (L) KLVFFA | 8 (L) KLVFFA | inhibition of all-[D]-Aβ (1–40) assembly compared with the opposite stereoisomer (all-[D]-Aβ (1–40)): more potent inhibitor
KVDDQD [hexapeptide] | – | – | anti-fibrillogenic activity in NBD based fluorescence assay (Aβ; in vitro): confirm this finding; anti-fibrillogenic activity in thioflavin-T based fluorescence assay (Aβ(1–40); in vitro): confirm this finding; fibrils seen by electron microscopy (Aβ40 [2]): failed to show any fibrils; β-sheet content of Aβ40 by CD spectrum after 24 hours incubation (Aβ40 [1]): dramatic increase; β-sheet content of Aβ40 by CD spectrum at time t=0 (Aβ40 [1]): increase
Lys-Ala-Val-Phe-Phe-Ala ([dK][dA][dV][dF][dF][dA]) [(D) KAVFFA] | 7 (D) KAVFFA | 6 (D) KAVFFA | –
Lys-Ile-Val-Phe-Phe-Ala ([dK][dI][dV][dF][dF][dA]) [(D) KIVFFA] | 1 (D) KIVFFA | 5 (D) KIVFFA | –
Lys-Leu-Val-Phe ([dK][dL][dV][dF]) [(D) KLVF] | 6 (D) KLVF | 9 (D) KLVF | –
Lys-Leu-Val-Phe-Phe [(D) KLVFF] | 9 (D) KLVFF | 10 (D) KLVFF | 125I-LBMP1620 binding (125I-LBMP1620): failed to bind
Lys-Leu-Val-Phe-Phe-Ala [(D) KLVFFA] ([dK][dL][dV][dF][dF][dA]) | 3 (D) KLVFFA | 1 (D) KLVFFA | inhibition of [L]-Aβ (1–40) assembly/fibrillogenesis compared with the opposite stereoisomer (Aβ(1–40); listed as all [D]-Lys-Leu-Val-Phe-Phe-Ala): more potent inhibitor; inhibition of [L]-Aβ (1–40) assembly/fibrillogenesis compared with the opposite stereoisomer (Aβ(1–40); listed as all-[D]-Lys-Leu-Val-Phe-Phe-Ala): much more potent inhibitors; cytoprotective activity against Aβ [3]: potent cytoprotective agents; also recorded: potent cytoprotective activity
Lys-Lys-Leu-Val-Phe-Phe-Ala [(D) KKLVFFA] ([dK][dK][dL][dV][dF][dF][dA]) | 2 (D) KKLVFFA | 1 (D) KKLVFFA | potency at lowest concentration tested versus highest concentration of all-[L] peptide (Aβ; all-[D] 25 μM versus all-[L] 800 μM): more potent than the highest concentration of the all-[L] peptide; potency of all-[D] relative to all-[L] stereoisomer peptide (Aβ; estimate from 25 μM all-[D] versus 800 μM all-[L]): at least 30 times; inhibition of [L]-Aβ (1–40) assembly/fibrillogenesis compared with the opposite stereoisomer (Aβ(1–40)): much more potent inhibitors; concentration required to give an equivalent inhibition (Aβ(1–40); listed as all-[D] stereoisomer peptide): 6.1 µM; potency of all-[D] relative to all-[L] stereoisomer peptide (Aβ(1–40); from 400 μM all-[L] versus 6.1 μM all-[D]): about 60 times; inhibition of Aβ (1–40) neurotoxicity (cytoprotection) [4]: potent cytoprotective agents; also recorded: more potent inhibitor
Lys-Phe-Val-Phe-Phe-Ala ([dK][dF][dV][dF][dF][dA]) [(D) KFVFFA] | 4 (D) KFVFFA | 1 (D) KFVFFA | –
NNFGAI [hexapeptide from the 20–29 β-sheet region of IAPP] | – | – | blocking of IAPP fibril formation (IAPP): capable of blocking the formation of IAPP fibrils
SNNFGA [hexapeptide from the 20–29 β-sheet region of IAPP] | – | – | blocking of IAPP fibril formation (IAPP): capable of blocking the formation of IAPP fibrils
